Consider 1 substance from patent US7129332.

Assay [1] deals with EGFRvIII peptide (…-biotin). Description: SPR (BIAcore), biotinylated peptide on streptavidin chip, immunotoxin injected. For orientation: In SPR one partner is held on a chip, and binding of the other changes the refractive index at the surface.
The target in assay [2] is EGFRvIII (mutant epidermal growth factor receptor) on NR6M cells (human) (UniProt P00533). Put plainly: cell-based or functional assay.

A word on the Kd: it is a measure of binding affinity in units of concentration. Regarding “MR1(Fv)-PE38 (from UniProt P11439 278-389; P11439 406-638) (scFv)”, the dissociation constant (Kd) in assay [1] is 8 nM. In addition, in assay [2], the IC50, cytotoxic activity, Experiment 1 was 9.2 ng/mL; the IC50, cytotoxic activity, Experiment 2 is 6.6 ng/mL; the IC50, cytotoxicity (inhibition of [3H]-leucine incorporation) on NR6M cells turned out to be 8 ng/mL.
